In patent US9187762B2, “Compositions and methods comprising sequences having hydroxyphenylpyruvate dioxygenase (HPPD) activity” (PIONEER HI-BRED INTERNATIONAL, INC., priority 2010, dated 2015):

Experiments:
maize HPPD [1] = assay: ON rate ratio, OFF rate ratio and insensitivity parameter with herbicidal HPPD inhibitors; type: biochemical
From the text: To devise a parameter for detecting changes in inhibitor binding affinity, KD, one can utilize the relationship between KD and the rates of binding and release of inhibitor to and from the enzyme. [formula] Higher KD (reduced affinity or increased insensitivity) can be attained with a numerically smaller ON rate, a larger OFF rate or both. […] The ratio of the reaction rate with inhibitor to that without inhibitor during the 70 to 90 second interval of the reaction was termed the “ON rate ratio”. […] Incubations with the same concentrations of enzyme but no mesotrione were done in parallel. After 1 hr at room temperature, 5 to 10 ul of the enzyme-inhibitor complex was dispensed into the wells of the assay plate. Reactions were started with the addition of 290 to 295 ul of 25 mM Hepes, pH 7, 2 mM ascorbate, 10 uM FeSO4, 100 uM HPP and 50 nM HGD. The reactions were monitored at 320 nm for 12 min. Reaction velocity accelerates as inhibitor is released from the enzyme until a steady state is reached, during which the reaction velocity is constant. The ratio of the steady state rate in mixtures containing mesotrione (or other herbicidal inhibitor) to the initial velocity of mixtures lacking inhibitor is termed the “OFF rate ratio”. Another parameter to record is the time span required for the reactions with inhibitor to reach the steady state. […] It is not certain that the steady state attained in the OFF rate reactions actually represents an equilibrium where OFF rates are now equal to ON rates. Because substrate and inhibitors bind in the same site, the high concentration of substrate present may competitively trap the inhibitor and prevent it from binding again. To be sure that improvement in ON rates is being taken into account, the ON and OFF rate ratios were multiplied together and the product is termed the “insensitivity parameter”. […] The variants in Table 9 were grouped according to the parameter in which they are improved compared to wild type. The sequence positions are numbered according to the wild-type maize amino acid sequence of SEQ ID 1. Some substitutions are effective in multiple contexts, as discussed in the next section.

maize HPPD [2] = assay: KD by isothermal titration calorimetry; type: binding
Experimental: To verify that the insensitivity parameter reflects improvement (elevation) in KD, KD was directly measured with isothermal titration calorimetry. […] Enzymes were transferred to a matrix of 25 mM Hepes, pH 7, 2 mM ascorbate and 10 uM FeSO4 by gel-filtration chromatography. Mesotrione or tembotrione were diluted into the same buffer. Enzyme concentrations in the cell ranged from 100 to 300 uM. Inhibitor concentrations in the syringe were always 8 times that of the cell concentration.

soybean plants = assay: Herbicide spray tests of transgenic HPPD soy plants (T1/T2) with multiple HPPD-inhibitor herbicides, visual injury; type: in vivo; settings: T1 plants, V1 stage; mesotrione, tembotrione, topramezone, isoxaflutole
Experimental: T1 plants were evaluated for zygosity. Homozygous single-locus transgenic plants and their corresponding null segregants were identified and T2 true breeding seed was obtained from each. Plants were grown to the V1 to V2 growth stage and then sprayed with the commercial formulation of mesotrione, tembotrione, topramezone, and isoxaflutole. All treatments were applied with nonionic surfactant and ammonium sulfate in a spray volume of 374 L/ha. Multiple rates of each herbicide were applied so a response range could be used to compare the relative tolerance of the different herbicides as well as the relative tolerance of homozygous nulls and positives for each event. The herbicide response for individual treated plants was evaluated by comparing to untreated plants of similar genetic background. Herbicide response ratings were eight days after treatment. Visual injury was on a scale of 0 to 100% injury (0=no effect to 100=dead plant).
T1 soybean plants expressing D0223903 (SEQ ID NO: 3) driven by a synthetic promoter (as described in U.S. Pat. No. 6,072,050) were evaluated with qPCR for the presence of the transgene and null and positive segregants selected. Plants were sprayed at the V1 growth stage with the commercial formulations of mesotrione, tembotrione, topramezone, and isoxaflutole. Two rates of each herbicide were applied foliarly with nonionic surfactant and ammonium sulfate in a spray volume of 374 L/ha. The herbicide response for individual plants was determined by comparing to untreated plants of similar genetic background. Visual injury was on a scale of 0 to 100% injury (0=no effect to 100=dead plant).

B1: D0223903: shuffled maize HPPD variant, SEQ ID NO: 3; R341C mutation introduced into HPPD D0193494 (protein)
chain: MGPTPTATAAGAAVAAASAAEQAAFRLVGHRNFVRFNPRSDRFHTLAFHHVELWCADAASAAGRFSFALGAPLAARSDLSTGNSAHASLLLRSGSLSFLFTAPYAHGADAATAALPSFSAAAARRFAADHGLAVRAVALRVADAEDAFRASVAAGARPAFGPVDLGRGFRLAEVELYGDVVLRYVSYPDGAAGEPFLPGFEGVASPGAADYGLSRFDHIVGNVPELAPAAAYFAGFTGFHEFAEFTTEDVGTAESGLNSMALANNSENVLLPLNEPVHGTKRRSQIQTFLDHHGGPGVQHIALASDDVLRTLREMQARSAMGGFEFLPPPPSDYYDGVRRCAGDVLTEAQINECQELGVLVDRDDQGVLLQIFTKPVGDRPTFFLEIIQRIGCMEKDEKGQEYQKGGCGGFGKGNFSQLFKSIEDYEKSLEAKQAAAAATAQGS
modifications: HPPD variant
notes: R341C mutation introduced into HPPD D0193494
Insensitivity parameter (ON rate ratio × OFF rate ratio) relative to that of maize wild-type HPPD (maize HPPD [1]; Isoxaflutole (diketonitrile)): 12.3 | Insensitivity parameter (ON rate ratio × OFF rate ratio) relative to that of maize wild-type HPPD (maize HPPD [1]; Sulcotrione): 3.3 | Insensitivity parameter (ON rate ratio × OFF rate ratio) relative to that of maize wild-type HPPD (maize HPPD [1]; Topramezone): 12.7 | Triple product (ON rate ratio × OFF rate ratio × kcat), relative to that of maize wild-type HPPD (maize HPPD [1]; inhibitor Isoxaflutole (diketonitrile)): 7.7 | Triple product (ON rate ratio × OFF rate ratio × kcat), relative to that of maize wild-type HPPD (maize HPPD [1]; inhibitor Mesotrione): 3.7 | Triple product (ON rate ratio × OFF rate ratio × kcat), relative to that of maize wild-type HPPD (maize HPPD [1]; inhibitor Sulcotrione): 2.1 | Triple product (ON rate ratio × OFF rate ratio × kcat), relative to that of maize wild-type HPPD (maize HPPD [1]; inhibitor Tembotrione): 12.1 | Triple product (ON rate ratio × OFF rate ratio × kcat), relative to that of maize wild-type HPPD (maize HPPD [1]; inhibitor Topramezone): 8.0 | Insensitivity parameter (ON rate ratio × OFF rate ratio) relative to that of maize wild-type HPPD (maize HPPD [1]; mesotrione): 6.0 | Insensitivity parameter (ON rate ratio × OFF rate ratio) relative to that of maize wild-type HPPD (maize HPPD [1]; tembotrione): 19.3 | Fold vs wt (KD) (maize HPPD [2]; Mesotrione, sites modeled: One): 3.6 | Fold vs wt (KD) (maize HPPD [2]; Mesotrione, sites modeled: Two): 4.9 | Fold vs wt (KD) (maize HPPD [2]; Tembotrione, sites modeled: Two): 7.3 | soybean tolerance to HPPD-inhibitor herbicides (soybean plants): increased soybean tolerance
